Numbered stars: 1 amine (or outer) side, 2 acyl side, 3 side chain; on linkers, the order of the positions; unused ones are H or OH. Ends that are not written are not given here. * marks the point of attachment. C20 diacid = O=C(O)CCCCCCCCCCCCCCCCCCC(=O)*; C18 diacid = O=C(O)CCCCCCCCCCCCCCCCC(=O)*; γGlu = O=C(O)[C@H](CCC(=O)[*:2])N[*:1]; C14 diacid = O=C(O)CCCCCCCCCCCCC(=O)*

To fix the notation:
B1: [N-terminal(C18 diacid)]mimylin (peptide)
peptide: {C18 diacid}-EASELSTAALGRLSAELHELATLPRTETGPESP-NH2
SMILES: CC(C)C[C@H](NC(=O)[C@H](C)NC(=O)[C@H](C)NC(=O)[C@@H](NC(=O)[C@H](CO)NC(=O)[C@H](CC(C)C)NC(=O)[C@H](CCC(=O)O)NC(=O)[C@H](CO)NC(=O)[C@H](C)NC(=O)[C@H](CCC(=O)O)NC(=O)CCCCCCCCCCCCCCCCC(=O)O)[C@@H](C)O)C(=O)NCC(=O)N[C@@H](CCCNC(=N)N)C(=O)N[C@@H](CC(C)C)C(=O)N[C@@H](CO)C(=O)N[C@@H](C)C(=O)N[C@@H](CCC(=O)O)C(=O)N[C@@H](CC(C)C)C(=O)N[C@@H](Cc1c[nH]cn1)C(=O)N[C@@H](CCC(=O)O)C(=O)N[C@@H](CC(C)C)C(=O)N[C@@H](C)C(=O)N[C@H](C(=O)N[C@@H](CC(C)C)C(=O)N1CCC[C@H]1C(=O)N[C@@H](CCCNC(=N)N)C(=O)N[C@H](C(=O)N[C@@H](CCC(=O)O)C(=O)N[C@H](C(=O)NCC(=O)N1CCC[C@H]1C(=O)N[C@@H](CCC(=O)O)C(=O)N[C@@H](CO)C(=O)N1CCC[C@H]1C(N)=O)[C@@H](C)O)[C@@H](C)O)[C@@H](C)O
B2: [N-terminal(C18 diacid), 9V]mimylin (peptide)
peptide: {C18 diacid}-EASELSTAVLGRLSAELHELATLPRTETGPESP-NH2
SMILES: CC(C)C[C@H](NC(=O)[C@H](CCC(=O)O)NC(=O)[C@H](Cc1c[nH]cn1)NC(=O)[C@H](CC(C)C)NC(=O)[C@H](CCC(=O)O)NC(=O)[C@H](C)NC(=O)[C@H](CO)NC(=O)[C@H](CC(C)C)NC(=O)[C@H](CCCNC(=N)N)NC(=O)CNC(=O)[C@H](CC(C)C)NC(=O)[C@@H](NC(=O)[C@H](C)NC(=O)[C@@H](NC(=O)[C@H](CO)NC(=O)[C@H](CC(C)C)NC(=O)[C@H](CCC(=O)O)NC(=O)[C@H](CO)NC(=O)[C@H](C)NC(=O)[C@H](CCC(=O)O)NC(=O)CCCCCCCCCCCCCCCCC(=O)O)[C@@H](C)O)C(C)C)C(=O)N[C@@H](C)C(=O)N[C@H](C(=O)N[C@@H](CC(C)C)C(=O)N1CCC[C@H]1C(=O)N[C@@H](CCCNC(=N)N)C(=O)N[C@H](C(=O)N[C@@H](CCC(=O)O)C(=O)N[C@H](C(=O)NCC(=O)N1CCC[C@H]1C(=O)N[C@@H](CCC(=O)O)C(=O)N[C@@H](CO)C(=O)N1CCC[C@H]1C(N)=O)[C@@H](C)O)[C@@H](C)O)[C@@H](C)O
B3: [N-terminal(C20 diacid-gGlu), des1, 4Q, 9V, 15Q, 16R, 19R, 21Q, 23Y, 27Q, 30S, 31Q, 32T, 33Y]mimylin (peptide)
peptide: {C20 diacid-γGlu}-ASQLSTAVLGRLSQRLHRLQTYPRTQTGSQTY-NH2
SMILES: CC(C)C[C@H](NC(=O)[C@H](CCCNC(=N)N)NC(=O)CNC(=O)[C@H](CC(C)C)NC(=O)[C@@H](NC(=O)[C@H](C)NC(=O)[C@@H](NC(=O)[C@H](CO)NC(=O)[C@H](CC(C)C)NC(=O)[C@H](CCC(N)=O)NC(=O)[C@H](CO)NC(=O)[C@H](C)NC(=O)CC[C@H](NC(=O)CCCCCCCCCCCCCCCCCCC(=O)O)C(=O)O)[C@@H](C)O)C(C)C)C(=O)N[C@@H](CO)C(=O)N[C@@H](CCC(N)=O)C(=O)N[C@@H](CCCNC(=N)N)C(=O)N[C@@H](CC(C)C)C(=O)N[C@@H](Cc1c[nH]cn1)C(=O)N[C@@H](CCCNC(=N)N)C(=O)N[C@@H](CC(C)C)C(=O)N[C@@H](CCC(N)=O)C(=O)N[C@H](C(=O)N[C@@H](Cc1ccc(O)cc1)C(=O)N1CCC[C@H]1C(=O)N[C@@H](CCCNC(=N)N)C(=O)N[C@H](C(=O)N[C@@H](CCC(N)=O)C(=O)N[C@H](C(=O)NCC(=O)N[C@@H](CO)C(=O)N[C@@H](CCC(N)=O)C(=O)N[C@H](C(=O)N[C@@H](Cc1ccc(O)cc1)C(N)=O)[C@@H](C)O)[C@@H](C)O)[C@@H](C)O)[C@@H](C)O
B4: [N-terminal(C20 diacid-gGlu), des1, 2L, 4Q, 8L, 9V, 15Q, 16R, 19R, 21Q, 23Y, 27Q, 30S, 31Q, 32T, 33Y]mimylin (peptide)
peptide: {C20 diacid-γGlu}-LSQLSTLVLGRLSQRLHRLQTYPRTQTGSQTY-NH2
SMILES: CC(C)C[C@H](NC(=O)CC[C@H](NC(=O)CCCCCCCCCCCCCCCCCCC(=O)O)C(=O)O)C(=O)N[C@@H](CO)C(=O)N[C@@H](CCC(N)=O)C(=O)N[C@@H](CC(C)C)C(=O)N[C@@H](CO)C(=O)N[C@H](C(=O)N[C@@H](CC(C)C)C(=O)N[C@H](C(=O)N[C@@H](CC(C)C)C(=O)NCC(=O)N[C@@H](CCCNC(=N)N)C(=O)N[C@@H](CC(C)C)C(=O)N[C@@H](CO)C(=O)N[C@@H](CCC(N)=O)C(=O)N[C@@H](CCCNC(=N)N)C(=O)N[C@@H](CC(C)C)C(=O)N[C@@H](Cc1c[nH]cn1)C(=O)N[C@@H](CCCNC(=N)N)C(=O)N[C@@H](CC(C)C)C(=O)N[C@@H](CCC(N)=O)C(=O)N[C@H](C(=O)N[C@@H](Cc1ccc(O)cc1)C(=O)N1CCC[C@H]1C(=O)N[C@@H](CCCNC(=N)N)C(=O)N[C@H](C(=O)N[C@@H](CCC(N)=O)C(=O)N[C@H](C(=O)NCC(=O)N[C@@H](CO)C(=O)N[C@@H](CCC(N)=O)C(=O)N[C@H](C(=O)N[C@@H](Cc1ccc(O)cc1)C(N)=O)[C@@H](C)O)[C@@H](C)O)[C@@H](C)O)[C@@H](C)O)C(C)C)[C@@H](C)O

One assay concerns the target T1, human amylin receptor (human calcitonin receptor + human RAMP3) (human) (UniProt P30988).
T1 sequence (looked up) 1: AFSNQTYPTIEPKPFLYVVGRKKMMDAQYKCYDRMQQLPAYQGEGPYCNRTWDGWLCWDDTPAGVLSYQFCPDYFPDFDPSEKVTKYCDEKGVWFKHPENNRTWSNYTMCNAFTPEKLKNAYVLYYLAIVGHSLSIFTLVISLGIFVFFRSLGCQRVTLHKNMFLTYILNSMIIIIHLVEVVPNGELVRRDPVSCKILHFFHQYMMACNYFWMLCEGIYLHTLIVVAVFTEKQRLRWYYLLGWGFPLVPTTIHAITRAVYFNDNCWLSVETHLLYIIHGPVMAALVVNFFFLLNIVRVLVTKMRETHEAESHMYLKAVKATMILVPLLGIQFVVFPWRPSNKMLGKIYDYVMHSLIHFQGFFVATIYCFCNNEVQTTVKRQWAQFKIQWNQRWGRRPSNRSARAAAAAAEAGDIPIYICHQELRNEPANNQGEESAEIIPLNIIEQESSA
T1 sequence (looked up) 2: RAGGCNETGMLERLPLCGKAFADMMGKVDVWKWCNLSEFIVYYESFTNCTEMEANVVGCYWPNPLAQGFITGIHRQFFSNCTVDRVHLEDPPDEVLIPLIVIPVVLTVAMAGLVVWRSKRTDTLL
Description: whole-cell competition vs 125I-rat amylin (Assay Va).
Usually IC50 stands for the concentration that inhibits the measured activity by half. In the case of {C14 diacid}-EASELSTAALGRLSAELHELATLPRTETGPESP-NH2 [[N-terminal(C14 diacid)]mimylin], the IC50 was determined as 1.19 nM.

For B1, the concentration for half-maximal inhibition (IC50) worked out at 0.902 nM. The same measure, in the same setting: with B2 the figure was 0.796 nM; with EASELSTAALGRLSAELHELATLPRTETGPESP-NH2 [mimylin], 0.511 nM.

Another assay concerns the target T2, human amylin 3(a) receptor (human calcitonin receptor co-expressed with RAMP-3) on BHK570/CRE-luc cells (human, UniProt P30988 25-474; O60896 24-148).
T2 sequence (looked up) 1: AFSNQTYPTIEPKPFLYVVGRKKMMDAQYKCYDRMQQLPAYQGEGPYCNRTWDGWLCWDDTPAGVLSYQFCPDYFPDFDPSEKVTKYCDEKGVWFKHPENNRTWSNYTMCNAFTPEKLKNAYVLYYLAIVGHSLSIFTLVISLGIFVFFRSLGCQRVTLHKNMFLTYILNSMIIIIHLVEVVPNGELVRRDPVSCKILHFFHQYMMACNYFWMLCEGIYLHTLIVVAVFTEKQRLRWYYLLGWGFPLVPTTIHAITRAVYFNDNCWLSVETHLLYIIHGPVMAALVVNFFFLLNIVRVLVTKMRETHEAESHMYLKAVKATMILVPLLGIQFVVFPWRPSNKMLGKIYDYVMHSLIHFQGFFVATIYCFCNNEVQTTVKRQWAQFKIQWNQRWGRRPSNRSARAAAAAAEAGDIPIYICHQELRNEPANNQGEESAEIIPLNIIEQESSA
T2 sequence (looked up) 2: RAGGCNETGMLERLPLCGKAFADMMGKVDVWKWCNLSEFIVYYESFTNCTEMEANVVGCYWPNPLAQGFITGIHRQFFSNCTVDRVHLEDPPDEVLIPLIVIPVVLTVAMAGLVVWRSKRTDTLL
Description: cell-based or functional assay.
B3: the “hAmylin-R funct. EC50 (pM), tested with HSA” value was 37 pM.

Consider B4, for which the “hAmylin-R funct. EC50 (pM), tested with HSA” value was found to be 44 pM.

A further assay deals with T3, human calcitonin receptor on BHK570/CRE-luc cells (human, UniProt P30988 25-474).
T3 sequence (looked up): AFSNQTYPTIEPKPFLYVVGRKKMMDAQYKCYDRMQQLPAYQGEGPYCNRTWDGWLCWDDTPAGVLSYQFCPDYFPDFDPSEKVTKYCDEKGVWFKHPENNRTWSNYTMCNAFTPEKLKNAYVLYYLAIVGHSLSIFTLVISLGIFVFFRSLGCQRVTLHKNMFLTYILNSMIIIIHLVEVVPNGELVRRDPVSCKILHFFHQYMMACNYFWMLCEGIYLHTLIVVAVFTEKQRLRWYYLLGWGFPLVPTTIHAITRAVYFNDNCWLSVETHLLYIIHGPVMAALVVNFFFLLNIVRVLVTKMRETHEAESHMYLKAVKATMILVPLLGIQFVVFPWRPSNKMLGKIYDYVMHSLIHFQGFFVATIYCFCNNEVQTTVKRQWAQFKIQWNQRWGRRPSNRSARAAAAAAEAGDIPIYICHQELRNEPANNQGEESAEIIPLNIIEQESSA
Description: cell-based or functional assay.
On to B3, for which the “hCTR funct. EC50 (pM), tested with HSA” value is 50 pM. B4: the “hCTR funct. EC50 (pM), tested with HSA” value came to 50 pM.

The record behind these values is patent publication US20160272683A1 (Novo Nordisk, published 2016).
